Literature values in article PMC9927262.
Like-named read-outs stand apart in the source and are kept apart here.

What was measured:
[1] = target: Spike RBD RBD (SARS-CoV-2) (UniProt P0DTC2)
[2] = target: Spike RBD RBD (SARS-CoV-2) (UniProt P0DTC2); remark: listed apart in the source

Substance | Kd [1] [nM] | Kd [2] [nM]
bamlanivimab | 3.5 | 
etesevimab |  | 4.1
